Laboratory results reported in the RNAGym collection of RNA variant scans (doi:10.7554/elife.80360).

B1: HDV Ribozyme (parent)
chain: GGCCGGCAUGGUCCCAGCCUCCUCGCUGGCGCCGGCUGGGCAACAUUCCGAGGGGACCGUCCCCUCGGUAAUGGCGAAUGGGACCCA

Variants of: B1
Assay: self-cleavage, relative activity (ratio to wild type); higher = more cleavage; co-transcriptional

Variant | self-cleavage
GGCCGGCAUGGUCCGAGCCUCCUCGCUGGCGCCGGCUGGGCAACAUUCCGAGGGGACCGUCCCCUCGGUAAUGGCGAAUGGCACCCA | 0.111
GGCCGGCAUGGUCCUAGCCUCCUCGCUGGCGCCGGCUGGGCAACGUUCCGAGGGGACCGUCCCCUCGGUAAUGGCGAAUGGGACCCA | 0.8
GGCCGGCAUGGUCCUAGCCUCCUCGCUGGCGCCGGCUGGGCAACUUUCCGAGGGGACCGUCCCCUCGGUAAUGGCGAAUGGGACCCA | 0.831
GGCCGGCAUGGUCCGAGCCUCCUCGCUGGCGCCGGCUGGGCAACAUUCCGAGGGGACCGUCCCCUCGGUAAUGGCAAAUGGGACCCA | 0.665
GGCCGGCAUGGUCCGAGCCUCCUCGCUGGCGCCGGCUGGGCAACAUUCCGAGGGGACCGUCCCCUCCGUAAUGGCGAAUGGGACCCA | 0.415
GGCCGGCAUGGUCCGAGCCUCCUCGCUGGCGCCGGCUGGGCAACAUUCCGAGGGGACCGUCCCCUCUGUAAUGGCGAAUGGGACCCA | 0.475
GGCCGGCAUGGUCCGAGCCUCCUCGCUGGCGCCGGCUGGGCAACAUUCCGAGGGGACCGUCCCCUCAGUAAUGGCGAAUGGGACCCA | 0.731
GGCCGGCAUGGUCCUAGCCUCCUCGCUGGCGCCGGCUGGGCAACAUUCCGAGGGGACCGUCCCCUCGGUAAUGGCGAUUGGGACCCA | 0.185
GGCCGGCAUGGUCCUAGCCUCCUCGCUGGCGCCGGCUGGGCAACAUUCCGAGGGGUCCGUCCCCUCGGUAAUGGCGAAUGGGACCCA | 0.91
GGCCGGCAUGGUCCUAGCCUCCUCGCUGGCGCCGGCUGGGCAACAUUCCGAGGGGCCCGUCCCCUCGGUAAUGGCGAAUGGGACCCA | 1.02
GGCCGGCAUGGUCCGAGCCUCCUCGCUGGCGCCGGCUGGGCAACAUUCCGAGCGGACCGUCCCCUCGGUAAUGGCGAAUGGGACCCA | 0.598
GGCCGGCAUGGUCCGAGCCUCCUCGCUGGCGCCGGCUGGGCAACAUUCCGAGUGGACCGUCCCCUCGGUAAUGGCGAAUGGGACCCA | 0.724
GGCCGGCAUGGUCCGAGCCUCCUCGCUGGCGCCGGCUGGGCAACAGUCCGAGGGGACCGUCCCCUCGGUAAUGGCGAAUGGGACCCA | 0.755
GGCCGGCAUGGUCCGAGCCUCCUCGCUGGCGCCGGCUGGGCAACACUCCGAGGGGACCGUCCCCUCGGUAAUGGCGAAUGGGACCCA | 0.256
GGCCGGCAUGGUCCGAGCCUCCUCGCUGGCGCCGGCUGGGCAACAUUCCGAGGGCACCGUCCCCUCGGUAAUGGCGAAUGGGACCCA | 0.582
GGCCGGCAUGGUCCUAGGCUCCUCGCUGGCGCCGGCUGGGCAACAUUCCGAGGGGACCGUCCCCUCGGUAAUGGCGAAUGGGACCCA | 0.0594
GGCCGGCAUGGUCCGAGCCUCCUCGCUGGCGCCGGCUGGGCAACAUUCCGAGGGGACCGUCCCCUCGGUAAUGGCGAAUGCGACCCA | 0.375
GGCCGGCAUGGUCCGAGCCUCCUCGCUGGCGCCGGCUGGGCAACAUUCCGAGGGGACCGUCCCCUCGGUAAUGGCGAAUGAGACCCA | 0.297
GGCCGGCAUGGUCCUAGCCUCCUCGCUGGCGCCGGCUGGGCAACAUUCCGGGGGGACCGUCCCCUCGGUAAUGGCGAAUGGGACCCA | 1.07
GGCCGGCAUGGUCCUAGCCUCCUCGCUGGCGCCGGCUGGGCAACAUUCCGCGGGGACCGUCCCCUCGGUAAUGGCGAAUGGGACCCA | 1.17
GGCCGGCAUGGUCCGAGCCUCCUCGCUGGCGCCGGCUGGGCAACAUGCCGAGGGGACCGUCCCCUCGGUAAUGGCGAAUGGGACCCA | 0.665
GGCCGGCAUGGUCCGAGCCUCCUCGCUGGCGCCGGCUGGGCAACAUCCCGAGGGGACCGUCCCCUCGGUAAUGGCGAAUGGGACCCA | 0.128

Variant | self-cleavage
GGCCGGCAUGGUCCUAGCCUCCUCGCUGGCGCCGGCUGGGCACCAUUCCGAGGGGACCGUCCCCUCGGUAAUGGCGAAUGGGACCCA | 0.0594
GGCCGGCAUGGUCCUAGCCUCCUCGCUGGCGCCGGCUGGGCAACAUUCCGAGGGGACCGUCCCCUCGGUCAUGGCGAAUGGGACCCA | 0.776
GGCCGGCAUGGUCCUAGCCUCCUCGCUGGCGCCGGCUGGGCAACAUUCCGAGGGGACCGUCCCCUCGGUGAUGGCGAAUGGGACCCA | 1.07
GGCCGGCAUGGUCCGAGCCUCCUCGCUGGCGCCGGCUGGGCAACAUUCCGAGGGGACCGUCCCCCCGGUAAUGGCGAAUGGGACCCA | 0.332
GGCCGGCAUGGUCCGAGCCUCCUCGCUGGCGCCGGCUGGGCAACAUUCCGAGGGGACCGUCCCCACGGUAAUGGCGAAUGGGACCCA | 0.831
GGCCGGCAUGGUCCGAGCCUCCUCGCUGGCGCCGGCUGGGCAACAUUCCGAGGGGACCGUCCCCGCGGUAAUGGCGAAUGGGACCCA | 0.886
GGCCGGCAUGGUCCUAGCCUCCUGGCUGGCGCCGGCUGGGCAACAUUCCGAGGGGACCGUCCCCUCGGUAAUGGCGAAUGGGACCCA | 0
GGCCGGCAUGGUCCUAGCCUCCUAGCUGGCGCCGGCUGGGCAACAUUCCGAGGGGACCGUCCCCUCGGUAAUGGCGAAUGGGACCCA | 0.482
GGCCGGCAUGGUCCUAGCCUCCUCGGUGGCGCCGGCUGGGCAACAUUCCGAGGGGACCGUCCCCUCGGUAAUGGCGAAUGGGACCCA | 0.867
GGCCGGCAUGGUCCGAGCCUCCGCGCUGGCGCCGGCUGGGCAACAUUCCGAGGGGACCGUCCCCUCGGUAAUGGCGAAUGGGACCCA | 0.415
GGCCGGCAUGGUCCUAGCAUCCUCGCUGGCGCCGGCUGGGCAACAUUCCGAGGGGACCGUCCCCUCGGUAAUGGCGAAUGGGACCCA | 0.128
GGCCGGCAUGGUCCGAGCCUCCUCGCUGGCGCCGGCUGGGCAACAUUCCGAGGGGACCGUCCCCUCGGUAAUGGCGAAAGGGACCCA | 0.312
GGCCGGCAUGGUCCUAGCCUCCUCGCUGGCGCCGGCUGGGCAACAUUCCGAGGGGACCGUCCCCUCGGUAAUGGCGAAUGGGACCCG | 1.05
GGCCGGCAUGGUCCUAGCCUCCUCGCUGGCGCCGGCUGGGCAACAUUCCGAGGGGACCGUCCCCUCGGUAAUGGCGAAUGGGACCCU | 0.993
GGCCGGCAUGGUCCUAGCCUCCUCGCUGGCGCCGGCUGGGCAACAUUCCGAGGGGACCGUCCCCUCGGUAAUGGCGGAUGGGACCCA | 1.14
GGCCGGCAUGGUCCGAGCCUCCUCGCUGGCGCCGGCUGGGCAACAUUCCGAGGGGACCGCCCCCUCGGUAAUGGCGAAUGGGACCCA | 0.7
GGCCGGCAUGGUCCGAGCCUCCUCGCUGGCGCCGGCUGGGCAACAUUCCGAGGGGACCGACCCCUCGGUAAUGGCGAAUGGGACCCA | 0.185
GGCCGGCAUGGUCCGAGCCGCCUCGCUGGCGCCGGCUGGGCAACAUUCCGAGGGGACCGUCCCCUCGGUAAUGGCGAAUGGGACCCA | 0
GGCCGGCAUGGUCCGAGCCCCCUCGCUGGCGCCGGCUGGGCAACAUUCCGAGGGGACCGUCCCCUCGGUAAUGGCGAAUGGGACCCA | 0.166
GGCCGGCAUGGUCCUAGCCUCCUCGCUGGCGCCGGCUGGGCAACAUUCCGAGGGGACCGUCCCCUCGGUACUGGCGAAUGGGACCCA | 0.467
GGCCGGCAUGGUCCUAGCCUCCUCGCUGGCGCCGGCUGGGCAACAUUCCGAGGGGACCGUCCCCUCGGUAGUGGCGAAUGGGACCCA | 1.14
GGCCGGCAUGGUCCGAGCCUCCUCGCUGGCGCCGGCUGGGCAACAUUCCGAGGGGACCGUCCCCUCGGUAAUGGCGAAUUGGACCCA | 0.73

Variant | self-cleavage
GGCCGGCAUGGUCCGAGCCUCCUCGCUGGCGCCGGCUGGGCAACAUUCCGAGGGGACCGUCCCCUCGGUAAUGGCGAAUAGGACCCA | 0.635
GGCCGGCAUGGUCCGAGCCUCCUCGCUGGCGCCGGCUGGGCAACAUUCCGAGGGGACCGUCCCCUCGGUAAUGGCGAAUCGGACCCA | 0.88
GGCCGGCAUGGUCCUAGCCUCCUCGCUGGAGCCGGCUGGGCAACAUUCCGAGGGGACCGUCCCCUCGGUAAUGGCGAAUGGGACCCA | 0.567
GGCCGGCAUGGUCCUAGCCUCAUCGCUGGCGCCGGCUGGGCAACAUUCCGAGGGGACCGUCCCCUCGGUAAUGGCGAAUGGGACCCA | 0.113
GGCCGGCAUGGUCCUAGCCUCUUCGCUGGCGCCGGCUGGGCAACAUUCCGAGGGGACCGUCCCCUCGGUAAUGGCGAAUGGGACCCA | 0.35
GGCCGGCAUGGUCCGAGCCUCCUCGCUGGCGCCGGCUGGGCAACAUUCCGAGGGGACCGUCCCCUCGGUAACGGCGAAUGGGACCCA | 0.119
GGCCGGCAUGGUCCGAGCCUCCUCGCUGGCGCCGGCUGGGCAACAUUCCGAGGGGACCGUCCCCUCGGUAAGGGCGAAUGGGACCCA | 0.128
GGCCGGCAUGGUCCGAGCCUCCUCGCUGGCGCCGGCUGGGCAACAUUCCGAGGGGACCGUCCCCUCGAUAAUGGCGAAUGGGACCCA | 0.525
GGCCGGCAUGGUCCGAGCCUCCUCGCUGGCGCCGGCUGGGCAACAUUCCGAGGGGACCGUCCCCUCGUUAAUGGCGAAUGGGACCCA | 0.369
GGCCGGCAUGGUCCGAGCCUCCUCGCUGGCGCCGGCUGGGCAACAUUCCGAGGCGACCGUCCCCUCGGUAAUGGCGAAUGGGACCCA | 0.415
GGCCGGCAUGGUCCUAGCCUACUCGCUGGCGCCGGCUGGGCAACAUUCCGAGGGGACCGUCCCCUCGGUAAUGGCGAAUGGGACCCA | 0
GGCCGGCAUGGUCCUAGCCUUCUCGCUGGCGCCGGCUGGGCAACAUUCCGAGGGGACCGUCCCCUCGGUAAUGGCGAAUGGGACCCA | 0.17
GGCCGGCAUGGUCCGAGCCUCCUCGCAGGCGCCGGCUGGGCAACAUUCCGAGGGGACCGUCCCCUCGGUAAUGGCGAAUGGGACCCA | 0.431
GGCCGGCAUGGUCCGAGCCUCCUCGCUGGCGCCGGCUGGGCAACAUUCCGAGGGGACCGUCCCCUCGGAAAUGGCGAAUGGGACCCA | 0.604
GGCCGGCAUGGUCCGAGCCUCCUCGCUGGCGCCGGCUGGGCAACAUUCCGAGGGGACCGUCCCCUCGGGAAUGGCGAAUGGGACCCA | 0.256
GGCCGGCAUGGUCCGAGCCUCCUCGCUGGCGCCGGCUGGGCAACAUUCCGAGGGGACCGUCCCCUCGGUAAUGCCGAAUGGGACCCA | 0.119
GGCCGGCAUGGUCCUAGCCUCCUCGCUGGCGCCGGCUGGGCGACAUUCCGAGGGGACCGUCCCCUCGGUAAUGGCGAAUGGGACCCA | 0.246
GGCCGGCAUGGUCCUAGCCUCCUCGCUGGCGCCGGCUGGGCUACAUUCCGAGGGGACCGUCCCCUCGGUAAUGGCGAAUGGGACCCA | 0.322
GGCCGGCAUGGUCCUAGCCUCCUCGCUGGCGCCGGCUGGGCCACAUUCCGAGGGGACCGUCCCCUCGGUAAUGGCGAAUGGGACCCA | 0.161
GGCCGGCAUGGUCCUUGCCUCCUCGCUGGCGCCGGCUGGGCAACAUUCCGAGGGGACCGUCCCCUCGGUAAUGGCGAAUGGGACCCA | 1.26
